From article PMC6068260, “Functional Analysis of a Carboxylesterase Gene Associated With Isoprocarb and Cyhalothrin Resistance in Rhopalosiphum padi (L.)” (Frontiers in Physiology, 2018)

Substrate: CC(=O)Oc1cccc2ccccc12
Assay: purified protein
Assay type: biochemical, Rhopalosiphum padi
Details: Tris-HCl buffer, 3 mM Fast Blue RR salt, 5 min

B1: RpCarE (Rhopalosiphum padi) (protein)
chain: MEVVIEQGVLKGVQNKTLLSNKPYVSFLGIPYAKPPVNDLRFKPPVKHPGWSGILKAISERDRCMQYAFVANDIIGSEDCLYLNVLVPQNGLNEKLAVMIFIHGGAFNYGCGSVNEQSPDYLLDENVIVITLNYRLNALGFLNLDIDECPGNMGLKDQLFAIKWIKANIAAFGGDVNNITIFGESAGSVSVHYHTMSPQSTGLFQKAIMQSGCAFNPWALNENHRVAAFKLAKNLGCLSSDPNEIVKYLRNVSAIDLVKETKFKDDNGFLDYKFVPSIESDMVSDRFLPAHPKTLATIASPVPVIVGLNSMEGIIALSEYRLSKFSDLQITDEISKLFNNQYSTEVISKIKDFYFNKCNNNCEIAKLENICHLHSDVFFVKDFYRGFDHFLKQNVTPVYIYEFKFDGELNAIKNWIFATRPVLRHALKGACHADEIYYLFRNNLSGVVPKPNSPELEMCKAMGKMWSNFAKTGDPNSLDLSFKWNYASASDTKYLSIDGDRTQMTQGMINNNRSRFWKDLIKESIV
notes: pET-28a His6-tag fusion (tag kept), E. coli BL21(DE3); catalytic triad S185-E312-H432
Km: 42.98 ± 6.73 µM
kcat: 5.50 ± 0.28 s⁻¹
kcat/Km: 130000 M⁻¹ s⁻¹
